Results taken from patent US12269859B2, “Synthetic immune receptors and methods of use thereof” (Angeles Therapeutics, Inc., priority 2016, dated 2025).

B1: 101817-B02 (protein)
chain: MALPVTALLLPLALLLHAARPEIVLTQSPATLSLSPGERATLSCSASSSVSYMYWYQQKPGQAPRLLIYRTSNLASGIPARFSGSGSGTDFTLTISSLEPEDFAVYYCQQYHSYPTTFGQGTKVEIKRTVLEIQNPDPAVYQLRDSKSSDKSVCLFTDFDSQTNVSQSKDSDVYITDKCVLDMRSMDFKSNSAVAWSNKSDFACANAFNNSIIPEDTFFPSSDVPCDVKLVEKSFETDTNLNFQNLSVIGFRILLLKVAGFNLLMTLRLWSSRAKRSGSGVKQTLNFDLLKLAGDVESNPGPTSMDWIWRILFLVGAATGAHSFEEVQLVESGGGLVQPGGSLRLSCAASGFSFNTYAMNWVRQAPGKGLEWVSHIRSKSNNFATYYADSVKDRFTISRDNAKNSLYLQMNSLRAEDTAVYYCARQGGDFPMDYWGQGTLVTVSSTREDLKNVFPPEVAVFEPSKAEIAHTQKATLVCLATGFYPDHVELSWWVNGKEVHSGVCTDPQPLKEQPALNDSRYCLSSRLRVSATFWQNPRNHFRCQVQFYGLSENDEWTQDRAKPVTQIVSAEAWGRADCGITSASYHQGVLSATILYEILLGKATLYAVLVSALVLMAMVKRKDSRGRAKRSGSGATNFSLLKQAGDVEENPGPSRGHMTEYKPTVRLATRDDVPRAVRTLAAAFADYPATRHTVDPDRHIERVTELQELFLTRVGLDIGKVWVADDGAAVAVWTTPESVEAGAVFAEIGPRMAELSGSRLAAQQQMEGLLAPHRPKEPAWFLATVGVSPDHQGKGLGSAVVLPGVEAAERAGVPAFLETSAPRNLPFYERLGFTVTADVEVPEGPRTWCMTRKPGA
B2: 010417-Y05 (protein)
chain: MALPVTALLLPLALLLHAARPLEGKPIPNPLLGLDSTGSGEDLKNVFPPEVAVFEPSKAEIAHTQKATLVCLATGFYPDHVELSWWVNGKEVHSGVCTDPQPLKEQPALNDSRYCLSSRLRVSATFWQNPRNHFRCQVQFYGLSENDEWTQDRAKPVTQIVSAEAWGRADCGITSASYHQGVLSATILYEILLGKATLYAVLVSALVLMAMVKRKDSRGRAKRSGSGATNFSLLKQAGDVEENPGPTSMALPVTALLLPLALLLHAARPDQIVLTQSPAIMSASPGEKVTISCSASSSVSYMYWYQQKPGSSPKPWIYRTSNLASGVPARFSGSGSGTSYSLTISNMEAEDAAAYYCQQYHSYPTTFGGGTKLEVKGGGGSGGGGSGGGGSEVQLVESGGGLVQPKGSLKLSCAASGFSFNTYAMNWVRQAPGKGLEWIAHIRSKSNNFATYYADSVKDRFSISRDASENILFLQMNNLKTEDTAMYYCVRQGGDFPMDYWGQGTSVTVSSTREAAAKEIVMTQSPATLSLSPGERATLSCRASQDISKYLNWYQQKPGQAPRLLIYHTSRLHSGIPARFSGSGSGTDYTLTISSLQPEDFAVYFCQQGNTLPYTFGQGTKLEIKGGGGSGGGGSGGGGSQVQLQESGPGLVKPSETLSLTCTVSGVSLPDYGVSWIRQPPGKGLEWIGVIWGSETTYYNSSLKSRVTISKDNSKNQVSLKLSSVTAADTAVYYCAKHYYYGGSYAMDYWGQGTLVTVSSTREQKLISEEDGSGIQNPDPAVYQLRDSKSSDKSVCLFTDFDSQTNVSQSKDSDVYITDKCVLDMRSMDFKSNSAVAWSNKSDFACANAFNNSIIPEDTFFPSSDVPCDVKLVEKSFETDTNLNFQNLSVIGFRILLLKVAGFNLLMTLRLWSSRAKRSGSGVKQTLNFDLLKLAGDVESNPGPSRGHMTEYKPTVRLATRDDVPRAVRTLAAAFADYPATRHTVDPDRHIERVTELQELFLTRVGLDIGKVWVADDGAAVAVWTTPESVEAGAVFAEIGPRMAELSGSRLAAQQQMEGLLAPHRPKEPAWFLATVGVSPDHQGKGLGSAVVLPGVEAAERAGVPAFLETSAPRNLPFYERLGFTVTADVEVPEGPRTWCMTRKPGA
B3: 092517-H02 (protein)
chain: MALPVTALLLPLALLLHAARPLEGKPIPNPLLGLDSTGSGEDLKNVFPPEVAVFEPSKAEIAHTQKATLVCLATGFYPDHVELSWWVNGKEVHSGVCTDPQPLKEQPALNDSRYCLSSRLRVSATFWQNPRNHFRCQVQFYGLSENDEWTQDRAKPVTQIVSAEAWGRADCGITSASYHQGVLSATILYEILLGKATLYAVLVSALVLMAMVKRKDSRGRAKRSGSGATNFSLLKQAGDVEENPGPTSMALPVTALLLPLALLLHAARPDVVMTQSPSSLSASVGDRVTITCKASEDIYIRLAWYQQKPGKAPKLLIYAATSLETGVPSRFSGSGSGTDFTLTISSLQPEDFATYYCQQYWTTPWTFGGGTKVEIKGGGGSGGGGSGGGGSQVQLQESGPGLVKPSQTLSLTCTVSGYSITIDYTWNWIRQPPGKGLEWIGYITYSGSTDYNPSLKSRVLISVDTSKNQVSLKLSSVTAADTAVYYCARLGRRYALDYWGQGTTVTVSSTREQKLISEEDGSGIQNPDPAVYQLRDSKSSDKSVCLFTDFDSQTNVSQSKDSDVYITDKCVLDMRSMDFKSNSAVAWSNKSDFACANAFNNSIIPEDTFFPSSDVPCDVKLVEKSFETDTNLNFQNLSVIGFRILLLKVAGFNLLMTLRLWSSRAKRSGSGVKQTLNFDLLKLAGDVESNPGPSRGHMTEYKPTVRLATRDDVPRAVRTLAAAFADYPATRHTVDPDRHIERVTELQELFLTRVGLDIGKVWVADDGAAVAVWTTPESVEAGAVFAEIGPRMAELSGSRLAAQQQMEGLLAPHRPKEPAWFLATVGVSPDHQGKGLGSAVVLPGVEAAERAGVPAFLETSAPRNLPFYERLGFTVTADVEVPEGPRTWCMTRKPGA
B4: 112916-C01 (protein)
chain: MALPVTALLLPLALLLHAARPDVVMTQTPLTLSVTIGQPASISCKSSQSLLDSDGKTYLHWLLQRPGQSPKRLIFLVSKLDSGVPDRFTGSGSGTDFTLKISRVEAEDLGVYYCWQGTHFPQTFGGGTKLEIKLEGKPIPNPLLGLDSTGSGEDLKNVFPPEVAVFEPSKAEIAHTQKATLVCLATGFYPDHVELSWWVNGKEVHSGVCTDPQPLKEQPALNDSRYCLSSRLRVSATFWQNPRNHFRCQVQFYGLSENDEWTQDRAKPVTQIVSAEAWGRADCGITSASYHQGVLSATILYEILLGKATLYAVLVSALVLMAMVKRKDSRGRAKRSGSGATNFSLLKQAGDVEENPGPTSMDWIWRILFLVGAATGAHSFEVQLQESGPDLVKPSQSLSLTCTVTGYSITSGYSWHWIRQFPGNKLEWMGYIHYSGDTDYNPSLKSRFSITRDTSKNQFFLQLNSVTTEDTATYYCATPGGFVYWGQGTLVTVSSTREQKLISEEDGSGIQNPDPAVYQLRDSKSSDKSVCLFTDFDSQTNVSQSKDSDVYITDKCVLDMRSMDFKSNSAVAWSNKSDFACANAFNNSIIPEDTFFPSSDVPCDVKLVEKSFETDTNLNFQNLSVIGFRILLLKVAGFNLLMTLRLWSSRAKRSGSGVKQTLNFDLLKLAGDVESNPGPSRGHMTEYKPTVRLATRDDVPRAVRTLAAAFADYPATRHTVDPDRHIERVTELQELFLTRVGLDIGKVWVADDGAAVAVWTTPESVEAGAVFAEIGPRMAELSGSRLAAQQQMEGLLAPHRPKEPAWFLATVGVSPDHQGKGLGSAVVLPGVEAAERAGVPAFLETSAPRNLPFYERLGFTVTADVEVPEGPRTWCMTRKPGA
modifications: Polynucleotide encoding a Synthetic Immune Receptor (SIR)
B5: 010417-U02 (protein)
chain: MALPVTALLLPLALLLHAARPLEGKPIPNPLLGLDSTGSGEDLKNVFPPEVAVFEPSKAEIAHTQKATLVCLATGFYPDHVELSWWVNGKEVHSGVCTDPQPLKEQPALNDSRYCLSSRLRVSATFWQNPRNHFRCQVQFYGLSENDEWTQDRAKPVTQIVSAEAWGRADCGITSASYHQGVLSATILYEILLGKATLYAVLVSALVLMAMVKRKDSRGRAKRSGSGATNFSLLKQAGDVEENPGPTSMALPVTALLLPLALLLHAARPDQIVLTQSPAIMSASPGEKVTISCSASSSVSYMYWYQQKPGSSPKPWIYRTSNLASGVPARFSGSGSGTSYSLTISNMEAEDAAAYYCQQYHSYPTTFGGGTKLEVKGGGGSGGGGSGGGGSEVQLVESGGGLVQPKGSLKLSCAASGFSFNTYAMNWVRQAPGKGLEWIAHIRSKSNNFATYYADSVKDRFSISRDASENILFLQMNNLKTEDTAMYYCVRQGGDFPMDYWGQGTSVTVSSTREAAAKEIVLTQSPATLSLSPGERATLSCSASSSVSYMHWYQQKPGQAPRLLIYDTSKLASGIPARFSGSGSGTDFTLTISSLEPEDVAVYYCFQGSVYPFTFGQGTKLEIKRGGGGSGGGGSGGGGSQVQLQESGPGLVKPSQTLSLTCTVSGGSISTSGMGVGWIRQHPGKGLEWIGHIWWDDDKRYNPALKSRVTISVDTSKNQFSLKLSSVTAADTAVYYCARMELWSYYFDYWGQGTLVTVSSTREQKLISEEDGSGIQNPDPAVYQLRDSKSSDKSVCLFTDFDSQTNVSQSKDSDVYITDKCVLDMRSMDFKSNSAVAWSNKSDFACANAFNNSIIPEDTFFPSSDVPCDVKLVEKSFETDTNLNFQNLSVIGFRILLLKVAGFNLLMTLRLWSSRAKRSGSGVKQTLNFDLLKLAGDVESNPGPSRGHMTEYKPTVRLATRDDVPRAVRTLAAAFADYPATRHTVDPDRHIERVTELQELFLTRVGLDIGKVWVADDGAAVAVWTTPESVEAGAVFAEIGPRMAELSGSRLAAQQQMEGLLAPHRPKEPAWFLATVGVSPDHQGKGLGSAVVLPGVEAAERAGVPAFLETSAPRNLPFYERLGFTVTADVEVPEGPRTWCMTRKPGA

Tested on: target antigen-expressing cell line
Assay: Jurkat NFAT-GFP assay, coculture with target cell lines expressing the respective target antigen (summary Table 10A)
Format: cell-based, human
Parameters: key: The signs +/−, +, 2+ etc. after the name of the cell lines indicate the relative degree of positivity on the Jurkat-NFAT-GFP assay as measured by the % GFP positive cells; +: relative degree of positivity on the Jurkat-NFAT-GFP assay as measured by the % GFP positive cells; 2+: relative degree of positivity on the Jurkat-NFAT-GFP assay as measured by the % GFP positive cells
How it was run: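 Read-out: % GFP+ cells by FACS. SIR-transduced, puromycin-selected Jurkat NFAT-GFP (IL-2 promoter reporter) cocultured ~4–18 h with target line, E:T ~1:2; parental cells as control; graded +/−, +, 2+ relative to parental.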

Molecule | NFAT-GFP ASSAY Positive Cell lines (coculture with HEL cells) | NFAT-GFP ASSAY Positive Cell lines (coculture with NALM6 cells) | NFAT-GFP ASSAY Positive Cell lines (coculture with RAJI cells) | NFAT-GFP ASSAY Positive Cell lines (coculture with L363 cells) | NFAT-GFP ASSAY Positive Cell lines (coculture with U266 cells)
B1 | HEL (+) | – | – | – | –
B2 | (+), HEL (+) | (+), HEL (+) | RAJI (+), NALM6 | – | –
B3 | HEL(+) | – | – | – | –
B4 | – | – | – | (+) | U266 (+/−), L363
B5 | +/− | + | RAJI (+), NALM6 | – | –
